Source: patent WO2019131769A1 (dated 2019)
Ends that are not written are not given here.

T1: BSA-modified peptide antigen FFTYHIRHGEVHC (SEQ ID NO: 1) (human, also: BSA carrier conjugate)
T1 construct: also called peptide corresponding to positions 633-644 of PAD4
T1 peptide: FFTYHIRHGEVHC


Tests used:
[1] = target: T2, human PAD4 (Peptidylarginine deiminase 4) (human, UniProt Q9UM07 1-663); experiment: cell-based or functional assay
[2] = target: T2, human PAD4 (Peptidylarginine deiminase …); experiment: SPR (Biacore T200), antibody captured on rabbit anti-mouse polyclonal antibody on CM5 chip, human PAD4 as analyte
[3] = target: T1, BSA-modified peptide antigen …; experiment: ELISA, culture supernatant of CHO cells on immobilised BSA-modified peptide

T2 sequence (Q9UM07 whole entry): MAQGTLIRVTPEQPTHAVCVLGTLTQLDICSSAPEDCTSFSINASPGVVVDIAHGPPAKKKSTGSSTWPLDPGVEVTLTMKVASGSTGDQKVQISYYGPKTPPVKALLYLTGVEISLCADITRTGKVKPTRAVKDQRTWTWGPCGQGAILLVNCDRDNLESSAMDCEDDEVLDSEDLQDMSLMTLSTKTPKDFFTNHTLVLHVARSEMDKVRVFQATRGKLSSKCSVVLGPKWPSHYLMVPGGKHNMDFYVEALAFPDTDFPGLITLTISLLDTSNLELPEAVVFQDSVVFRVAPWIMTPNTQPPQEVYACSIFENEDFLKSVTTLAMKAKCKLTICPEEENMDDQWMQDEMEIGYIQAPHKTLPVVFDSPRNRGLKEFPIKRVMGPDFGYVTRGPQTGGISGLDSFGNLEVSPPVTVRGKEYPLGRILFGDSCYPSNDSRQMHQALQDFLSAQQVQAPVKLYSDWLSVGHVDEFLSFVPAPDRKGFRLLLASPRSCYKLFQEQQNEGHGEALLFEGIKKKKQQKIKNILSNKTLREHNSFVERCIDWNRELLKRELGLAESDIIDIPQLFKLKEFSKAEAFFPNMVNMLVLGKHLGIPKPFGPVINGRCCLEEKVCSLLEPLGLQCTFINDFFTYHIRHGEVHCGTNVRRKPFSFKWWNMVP

Binder | inhibition rate of citrullinating activity of active PAD4 (BAEE substrate, colorimetric) [1] [%] | Kd [2] [nM] | binding result [3]
P1 (antibody, V domains shown, Chicken variable regions recombined into mouse chimeric antibody (IgG1) expression vectors; also called anti-PAD4 antibody P1; P1 etc) VH: AVTLDESGGGLQTPGGGLSLICKASGFHMRSYAMNWVRQAPGKGLEFVAGIDNSGRYRNYGAAVKGRATISRDNGQSTVRLQLNNLRAEDTGIYYCAKNFDVGGDGCDWSSGCIDAWGHGTEVIVS VL: ASTQPSSVSANPGETVKITCSGGSSTYYGWYQQKSPGSAPVTVIYQNTKRPSGLSSRFSGSKSGSTATLTITGVQAEDEAVYFCGGYDTRTYAGIFGAGTTLTVL | 63 | 73 | 
P4 (antibody, V domains shown, Chicken variable regions recombined into mouse chimeric antibody (IgG1) expression vectors; also called anti-PAD4 antibody P4; P1 etc) VH: AVTLDESGGGLQTPGGGLSLICKASGFSMRSYAMNWVRQAPGKGLEFVAGIDNTGRYTGYGSAVKGRATISRDNGQSTVRLQLNNLRAEDTGTYYCAKNVDVAGSGCDWSSGCIDAWGHGTEVTVS VL: ASTQPSSVSANPGETVKITCSGGSSTYYGWYQQKSPGSAPVTVIYQNTKRPSGLSSRFSGSKSGSTATLTITGVQAEDEAVYFCGGYDTRTYAGIFGAGTTLTVL | 82 | 15 | 

Further binders by falling Kd [2], results first:

inhibition rate of citrullinating activity of active PAD4 (BAEE substrate, colorimetric) [1] [%] | Kd [2] [nM] | binding result [3] | Binder
62 | 31 | binds | P2 (antibody, V domains shown, Chicken variable regions recombined into mouse chimeric antibody (IgG1) expression vectors; also called anti-PAD4 antibody P2; P1 etc) VH: AVTLDESGGGLQTPGGALSLVCKASGFHMRSYAMNWVRQAPGKGLEFVAGIDNSGRYRNYGAAVKGRATISRDNGQSTVRLQLNNLRAEDTGIYYCAKNFDVGGDGCDWSSGCIDAWGHGTEVIVS VL: ASTQPASVSANPGETVKITCSGGSSTYYGWYQQKSPGSAPVTVIYQNTNRPSDIPSRFSGSKSGSTATLTITGVQAEDEAVYFCGGYDRSNYAGIFGAGTTLTVL
80 | 24 | binds | P3 (antibody, V domains shown, Chicken variable regions recombined into mouse chimeric antibody (IgG1) expression vectors; also called anti-PAD4 antibody P3; P1 etc) VH: AVTLDESGGGLQTPGGGLSLICKASGSTIRSYAMNWVRQAPGKGLEFVAGIDNSGRYTNYGAAVKGRATISRDNGQSTVRLQLNNLRAEDTGIYYCAKNVDVAGYGCDWSSGCIDTWGHGTEVIVS VL: ASTQPASVSANPGETVKITCSGGSSTYYGWYQQKSPGSAPVTVIYENTNRPSDIPSRFSGSKSGSTATLTITGVQADDEAVYFCGGYDRTNYAGIFGAGTTLTVL
